By Ki is commonly meant the equilibrium dissociation constant of an inhibitor or competing ligand from its target.

Ki data for seven molecules are collected here from patent publication US20200024322A1 (Eli Lilly, published 2020).

The target in one assay is T1, human GLP-1 receptor (human, UniProt P43220 24-463).
T1 construct: whole, on cells; Used as crude membranes of stably transfected HEK293 cells; also called hGLP1R; hGLP-1R
The assay can be described thus: SPA, [125I]-GLP-1 displacement, hGLP-1R membranes.

The next assay deals with T2, human GIP receptor (human, UniProt P48546 22-466).
T2 construct: whole, on cells; Used as crude membranes of stably transfected CHO cells; also called hGIPR
T2 sequence (looked up): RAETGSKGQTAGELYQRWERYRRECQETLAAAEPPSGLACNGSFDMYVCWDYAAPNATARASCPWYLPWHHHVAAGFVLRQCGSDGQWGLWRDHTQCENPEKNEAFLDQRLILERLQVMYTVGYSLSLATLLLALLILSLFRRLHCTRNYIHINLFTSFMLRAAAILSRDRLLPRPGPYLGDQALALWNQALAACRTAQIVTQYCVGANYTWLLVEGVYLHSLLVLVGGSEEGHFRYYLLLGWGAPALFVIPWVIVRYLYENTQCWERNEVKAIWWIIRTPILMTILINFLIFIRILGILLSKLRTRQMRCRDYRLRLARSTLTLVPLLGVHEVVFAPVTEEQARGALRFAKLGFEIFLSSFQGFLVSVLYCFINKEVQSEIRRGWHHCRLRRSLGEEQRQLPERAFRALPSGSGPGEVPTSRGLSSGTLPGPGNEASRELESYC
The assay can be described thus: SPA, [125I]-GIP displacement, hGIPR membranes.

Numbered stars: 1 amine (or outer) side, 2 acyl side, 3 side chain; on linkers, the order of the positions; unused ones are H or OH. Square brackets hold non-standard residues; d marks the D form. Side chains are listed from the residue outwards. Ends that are not written are not given here. * marks the point of attachment. C20 diacid = O=C(O)CCCCCCCCCCCCCCCCCCC(=O)*; γGlu = O=C(O)[C@H](CCC(=O)[*:2])N[*:1]; AEEA = NCCOCCOCC(=O)O; Aib = CC(C)(N)C(=O)O

B1: Example 23 (peptide)
peptide: Y[Aib]EGTFTSDK([AEEA-AEEA-γGlu-C20 diacid])SILLDKIAQ[Aib]AFIEYLIEGGPSSGAPPPS-NH2
modifications: N-terminus assumed
SMILES: CC[C@H](C)[C@H](NC(=O)[C@H](CCCCN)NC(=O)[C@H](CC(=O)O)NC(=O)[C@H](CC(C)C)NC(=O)[C@H](CC(C)C)NC(=O)[C@@H](NC(=O)[C@H](CO)NC(=O)[C@H](CCCCNC(=O)COCCOCCNC(=O)COCCOCCNC(=O)CC[C@H](NC(=O)CCCCCCCCCCCCCCCCCCC(=O)O)C(=O)O)NC(=O)[C@H](CC(=O)O)NC(=O)[C@H](CO)NC(=O)[C@@H](NC(=O)[C@H](Cc1ccccc1)NC(=O)[C@@H](NC(=O)CNC(=O)[C@H](CCC(=O)O)NC(=O)C(C)(C)NC(=O)[C@@H](N)Cc1ccc(O)cc1)[C@@H](C)O)[C@@H](C)O)[C@@H](C)CC)C(=O)N[C@@H](C)C(=O)N[C@@H](CCC(N)=O)C(=O)NC(C)(C)C(=O)N[C@@H](C)C(=O)N[C@@H](Cc1ccccc1)C(=O)N[C@H](C(=O)N[C@@H](CCC(=O)O)C(=O)N[C@@H](Cc1ccc(O)cc1)C(=O)N[C@@H](CC(C)C)C(=O)N[C@H](C(=O)N[C@@H](CCC(=O)O)C(=O)NCC(=O)NCC(=O)N1CCC[C@H]1C(=O)N[C@@H](CO)C(=O)N[C@@H](CO)C(=O)NCC(=O)N[C@@H](C)C(=O)N1CCC[C@H]1C(=O)N1CCC[C@H]1C(=O)N1CCC[C@H]1C(=O)N[C@@H](CO)C(N)=O)[C@@H](C)CC)[C@@H](C)CC
For B1, the figures for the inhibitory constant (Ki) in the assay with human GLP-1 receptor and with human GIP receptor were 6.32 nM and 0.258 nM, respectively.
For the molecule Y[Aib]EGTFTSDYSILLDKIAQ[Aib]AFK([AEEA-AEEA-γGlu-C20 diacid])EYLIEGGPSSGAPPPS-NH2 [Example 33], the Ki came to 361 nM in the assay with human GLP-1 receptor and 6.4 nM with human GIP receptor.

B2: Example 35 (peptide)
peptide: Y[Aib]EGTFTSDYSILLDKIAQ[Aib]AFIEYK([AEEA-AEEA-γGlu-C20 diacid])IEGGPSSGAPPPS-NH2
modifications: N-terminus assumed
SMILES: CC[C@H](C)[C@H](NC(=O)[C@H](CCCCN)NC(=O)[C@H](CC(=O)O)NC(=O)[C@H](CC(C)C)NC(=O)[C@H](CC(C)C)NC(=O)[C@@H](NC(=O)[C@H](CO)NC(=O)[C@H](Cc1ccc(O)cc1)NC(=O)[C@H](CC(=O)O)NC(=O)[C@H](CO)NC(=O)[C@@H](NC(=O)[C@H](Cc1ccccc1)NC(=O)[C@@H](NC(=O)CNC(=O)[C@H](CCC(=O)O)NC(=O)C(C)(C)NC(=O)[C@@H](N)Cc1ccc(O)cc1)[C@@H](C)O)[C@@H](C)O)[C@@H](C)CC)C(=O)N[C@@H](C)C(=O)N[C@@H](CCC(N)=O)C(=O)NC(C)(C)C(=O)N[C@@H](C)C(=O)N[C@@H](Cc1ccccc1)C(=O)N[C@H](C(=O)N[C@@H](CCC(=O)O)C(=O)N[C@@H](Cc1ccc(O)cc1)C(=O)N[C@@H](CCCCNC(=O)COCCOCCNC(=O)COCCOCCNC(=O)CC[C@H](NC(=O)CCCCCCCCCCCCCCCCCCC(=O)O)C(=O)O)C(=O)N[C@H](C(=O)N[C@@H](CCC(=O)O)C(=O)NCC(=O)NCC(=O)N1CCC[C@H]1C(=O)N[C@@H](CO)C(=O)N[C@@H](CO)C(=O)NCC(=O)N[C@@H](C)C(=O)N1CCC[C@H]1C(=O)N1CCC[C@H]1C(=O)N1CCC[C@H]1C(=O)N[C@@H](CO)C(N)=O)[C@@H](C)CC)[C@@H](C)CC
For the molecule B2, the Ki was 54.6 nM with human GLP-1 receptor and 0.0358 nM in the assay with human GIP receptor.

B3: Example 26 (peptide)
peptide: Y[Aib]EGTFTSDYSIK([AEEA-AEEA-γGlu-C20 diacid])LDKIAQ[Aib]AFIEYLIEGGPSSGAPPPS-NH2
modifications: N-terminus assumed
SMILES: CC[C@H](C)[C@H](NC(=O)[C@H](CCCCN)NC(=O)[C@H](CC(=O)O)NC(=O)[C@H](CC(C)C)NC(=O)[C@H](CCCCNC(=O)COCCOCCNC(=O)COCCOCCNC(=O)CC[C@H](NC(=O)CCCCCCCCCCCCCCCCCCC(=O)O)C(=O)O)NC(=O)[C@@H](NC(=O)[C@H](CO)NC(=O)[C@H](Cc1ccc(O)cc1)NC(=O)[C@H](CC(=O)O)NC(=O)[C@H](CO)NC(=O)[C@@H](NC(=O)[C@H](Cc1ccccc1)NC(=O)[C@@H](NC(=O)CNC(=O)[C@H](CCC(=O)O)NC(=O)C(C)(C)NC(=O)[C@@H](N)Cc1ccc(O)cc1)[C@@H](C)O)[C@@H](C)O)[C@@H](C)CC)C(=O)N[C@@H](C)C(=O)N[C@@H](CCC(N)=O)C(=O)NC(C)(C)C(=O)N[C@@H](C)C(=O)N[C@@H](Cc1ccccc1)C(=O)N[C@H](C(=O)N[C@@H](CCC(=O)O)C(=O)N[C@@H](Cc1ccc(O)cc1)C(=O)N[C@@H](CC(C)C)C(=O)N[C@H](C(=O)N[C@@H](CCC(=O)O)C(=O)NCC(=O)NCC(=O)N1CCC[C@H]1C(=O)N[C@@H](CO)C(=O)N[C@@H](CO)C(=O)NCC(=O)N[C@@H](C)C(=O)N1CCC[C@H]1C(=O)N1CCC[C@H]1C(=O)N1CCC[C@H]1C(=O)N[C@@H](CO)C(N)=O)[C@@H](C)CC)[C@@H](C)CC
As to B3, the Ki came to 4.22 nM with human GLP-1 receptor and 0.176 nM with human GIP receptor.

B4: Example 28 (peptide)
peptide: Y[Aib]EGTFTSDYSILLK([AEEA-AEEA-γGlu-C20 diacid])KIAQ[Aib]AFIEYLIEGGPSSGAPPPS-NH2
modifications: N-terminus assumed
SMILES: CC[C@H](C)[C@H](NC(=O)[C@H](CCCCN)NC(=O)[C@H](CCCCNC(=O)COCCOCCNC(=O)COCCOCCNC(=O)CC[C@H](NC(=O)CCCCCCCCCCCCCCCCCCC(=O)O)C(=O)O)NC(=O)[C@H](CC(C)C)NC(=O)[C@H](CC(C)C)NC(=O)[C@@H](NC(=O)[C@H](CO)NC(=O)[C@H](Cc1ccc(O)cc1)NC(=O)[C@H](CC(=O)O)NC(=O)[C@H](CO)NC(=O)[C@@H](NC(=O)[C@H](Cc1ccccc1)NC(=O)[C@@H](NC(=O)CNC(=O)[C@H](CCC(=O)O)NC(=O)C(C)(C)NC(=O)[C@@H](N)Cc1ccc(O)cc1)[C@@H](C)O)[C@@H](C)O)[C@@H](C)CC)C(=O)N[C@@H](C)C(=O)N[C@@H](CCC(N)=O)C(=O)NC(C)(C)C(=O)N[C@@H](C)C(=O)N[C@@H](Cc1ccccc1)C(=O)N[C@H](C(=O)N[C@@H](CCC(=O)O)C(=O)N[C@@H](Cc1ccc(O)cc1)C(=O)N[C@@H](CC(C)C)C(=O)N[C@H](C(=O)N[C@@H](CCC(=O)O)C(=O)NCC(=O)NCC(=O)N1CCC[C@H]1C(=O)N[C@@H](CO)C(=O)N[C@@H](CO)C(=O)NCC(=O)N[C@@H](C)C(=O)N1CCC[C@H]1C(=O)N1CCC[C@H]1C(=O)N1CCC[C@H]1C(=O)N[C@@H](CO)C(N)=O)[C@@H](C)CC)[C@@H](C)CC
With B4, the values for the Ki with human GLP-1 receptor and with human GIP receptor were 21.1 nM and 0.24 nM, respectively.

B5: Example 38 (peptide)
peptide: Y[Aib]EGTFTSDYSILLDKIAQ[Aib]AFIEYLIEK([AEEA-AEEA-γGlu-C20 diacid])GPSSGAPPPS-NH2
modifications: N-terminus assumed
SMILES: CC[C@H](C)[C@H](NC(=O)[C@H](CCCCN)NC(=O)[C@H](CC(=O)O)NC(=O)[C@H](CC(C)C)NC(=O)[C@H](CC(C)C)NC(=O)[C@@H](NC(=O)[C@H](CO)NC(=O)[C@H](Cc1ccc(O)cc1)NC(=O)[C@H](CC(=O)O)NC(=O)[C@H](CO)NC(=O)[C@@H](NC(=O)[C@H](Cc1ccccc1)NC(=O)[C@@H](NC(=O)CNC(=O)[C@H](CCC(=O)O)NC(=O)C(C)(C)NC(=O)[C@@H](N)Cc1ccc(O)cc1)[C@@H](C)O)[C@@H](C)O)[C@@H](C)CC)C(=O)N[C@@H](C)C(=O)N[C@@H](CCC(N)=O)C(=O)NC(C)(C)C(=O)N[C@@H](C)C(=O)N[C@@H](Cc1ccccc1)C(=O)N[C@H](C(=O)N[C@@H](CCC(=O)O)C(=O)N[C@@H](Cc1ccc(O)cc1)C(=O)N[C@@H](CC(C)C)C(=O)N[C@H](C(=O)N[C@@H](CCC(=O)O)C(=O)N[C@@H](CCCCNC(=O)COCCOCCNC(=O)COCCOCCNC(=O)CC[C@H](NC(=O)CCCCCCCCCCCCCCCCCCC(=O)O)C(=O)O)C(=O)NCC(=O)N1CCC[C@H]1C(=O)N[C@@H](CO)C(=O)N[C@@H](CO)C(=O)NCC(=O)N[C@@H](C)C(=O)N1CCC[C@H]1C(=O)N1CCC[C@H]1C(=O)N1CCC[C@H]1C(=O)N[C@@H](CO)C(N)=O)[C@@H](C)CC)[C@@H](C)CC
On to B5, for which the inhibition constant Ki with human GLP-1 receptor was determined as 31.3 nM; with human GIP receptor it was 0.104 nM.

B6: Example 204 (peptide)
peptide: YXEGTXTSDXSIXLDEKAQXEFIXYLIEGGPSSGAPPPS
modifications: Aib2; αMeF(2F)6; 4Pal10; αMeL13; K17((2-[2-(2-Amino-ethoxy)-ethoxy]-acetyl)2-(γ-Glu)-CO-(CH2)16-CO2H); Aib20; D-Glu24; C-terminal NH2
In the assay with human GIP receptor, B6 gave a Ki of 0.0704 nM.
